Consider one protein from publication PMC11399303, “Recombinant expression and characterization of the endochitinase Chit36-TA from Trichoderma asperellum in Komagataella phaffii for chitin degradation of black soldier fly exuviae” (Bioprocess and Biosystems Engineering, 2024).

By Km is commonly meant the substrate concentration at which the rate is half of its maximum. By Vmax is commonly meant the top rate of the reaction or transport when substrate is in excess.

Substrate in this series: CC(=O)N[C@H]1[C@H](Oc2ccc3c(C)cc(=O)oc3c2)O[C@H](CO)[C@@H](O[C@@H]2O[C@H](CO)[C@@H](O[C@@H]3O[C@H](CO)[C@@H](O)[C@H](O)[C@H]3NC(C)=O)[C@H](O)[C@H]2NC(C)=O)[C@@H]1O
Put plainly: fluorometric 4-methylumbelliferone release, nonlinear regression. Format: biochemical, Trichoderma asperellum. To be noted: 50 mM sodium acetate, pH 4.5, 40 °C, 5-70 µM substrate. The source says:
fluorometric 4-methylumbelliferone release, nonlinear regression on Chit36-TA

B1: Chit36-TA (Trichoderma asperellum CBS 433.97) (protein)
chain: QNATCALKGKPAGKVLMGYWENWDGAANGVHPGFGWTPIENPIIKQNGYNVINAAFPVILSDGTALWENDMAPDTQVATPAEMCEAKAAGATILLSIGGATAGIDLSSSAVADKFIATIVPILKQYNFDGIDIDIETGLTNSGNINTLSTSQTNLIRIIDGVLAQMPSNFGLTMAPETAYVTGGSITYGSIWGAYLPIIQKYVQNGRLWWLNMQYYNGDMYGCSGDSYAAGTVQGFIAQTDCLNAGLTIQGTTIKVPYDMQVPGLPAQSGAGGGYMNPSLVGQAWDHYNGALKGLMTWSINWDGAGNWTFGDNLLTRIG
notes: mature protein without native signal peptide, C-terminal His6 (kept), codon-optimized synthetic gene, secreted from Komagataella phaffii BG10, Ni-NTA purified, N-glycosylated (43 kDa)
On to B1, for which the Michaelis constant (Km) is listed as 289 µM and the Vmax was 3 µmol/min/mg.
